Laboratory results published in patent US5310882A, “Somatotropins with alterations in the α-helix 3 region” (priority 1990, dated 1994).
Residue numbers refer to the chain shown, from its start. Names and notes keep the numbering of the source.

B1: L115A + A34: rpST with leucine 115 changed to alanine, A34 background (protein, UniProt P01248 27-216, looked up, variant L115A)
Somatotropin: FPAMPLSSLFANAVLRAQHLHQLAADTYKEFERAYIPEGQRYSIQNAQAAFCFSETIPAPTGKDEAQQRSDVELLRFSLLLIQSWLGPVQFLSRVFTNSLVFGTSDRVYEKLKDAEEGIQALMRELEDGSPRAGQILKQTYDKFDTNLRSDDALLKNYGLLSCFKKDLHKAETYLRVMKCRRFVESSCAF
modifications: A34 background
notes: rpST with leucine 115 changed to alanine, A34 background
B2: L118A + A34: rpST with leucine 118 changed to alanine, A34 background (protein, UniProt P01248 27-216, looked up, variant L118A)
Somatotropin: B1 Somatotropin with L92A, A115L
modifications: A34 background
notes: rpST with leucine 118 changed to alanine, A34 background

What was measured:
[1] = tested on: hypophysectomized (hypox) rat; assay: Hypox rat test for growth enhancement; assay type: in vivo; conditions: growth over a period such as 10 days; relative to rpST positive control
Method: The efficacy of the recombinant animal somatotropin derivatives of the present invention for altering the growth rate of animals is determined utilizing the hypophysectomized (hypox) rat assay. […] The response measured is growth over a period of time such as 10 days and is presented in Table IV as percent of the biological activity of the rpST positive control, which is included in every trial.

[2] = Solution stability profile of rpST mutant proteins (solubility in vitro at 43° C.); assay type: physicochemical; conditions: pH 7.4
Method: The procedure described to determine stability profiles is as follows. […] This is filtered through a millipore sterile Millex-0.22 μm filter unit and 0.1 ml aliquots placed into tubes. These are placed in a 43° C. oven and removed at the required intervals. The contents are then diluted with phosphate buffered saline. The supernatant is assayed for monomer and dimer content by HPLC. A mass balance is done. Any precipitated material is recorded. Results are compared with the initial concentrations and a stability profile documented.

[3] = tested on: somatotropin receptor from purified liver membranes; assay: Liver radio-receptor assay (RRA), competition with 125I-rpST; conditions: competition with 125I-rpST for binding; percent rpST binding

| Molecule | Hypox rat [1] | % Soluble [2] [%] | RRA [3] |
| --- | --- | --- | --- |
| B1 | 88.6% of the activity of the | 0 | 163% of the activity observ |
| B2 | 64% of the activity of the | 10 | 49.5% of the activity observ |
